Laboratory results from paper PMC4413027 (Nature Communications, 2015).

Molecular target: T1, Full-length human CDK1 from a 3C-protease cleavable GST fusion (GPLGS left at the N terminus), … (human, UniProt P06493 1-297)
T1 construct: short cloning artefact left at the N terminus after 3C cleavage of the GST fusion; CDK1, human, full length; also called GST-CDK1 (before cleavage); unphosphorylated CDK1; source: insect cells (Sf9, baculovirus pVL1393GST-CDK1), purified (glutathione-sepharose 4B, GST-3C cleavage, SEC); for ITC treated with λ-phosphatase and purified again by SEC; not shown: GST, N-terminal, cleaved
T1 sequence (P06493 other isoform, or with tags, fused parts or gaps): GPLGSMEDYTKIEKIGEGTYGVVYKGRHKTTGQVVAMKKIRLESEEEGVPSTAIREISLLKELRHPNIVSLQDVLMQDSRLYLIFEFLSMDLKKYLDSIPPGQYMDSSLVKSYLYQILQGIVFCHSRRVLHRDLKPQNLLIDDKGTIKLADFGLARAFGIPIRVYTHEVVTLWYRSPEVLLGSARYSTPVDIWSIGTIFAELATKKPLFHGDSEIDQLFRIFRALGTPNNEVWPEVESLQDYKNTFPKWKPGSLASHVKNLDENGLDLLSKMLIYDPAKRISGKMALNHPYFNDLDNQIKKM
Test: ITC; higher salt, higher pH: 50 mM HEPES pH 8.0, 500 mM NaCl, 0.01% MTG, 30 °C; cyclin in the cell, unphosphorylated CDK from the syringe; one-set-of-sites model
Conditions: both partners purified

B1: Human cyclin B1, residues 165–433 carrying the C167S/C238S/C350S mutations (domain or fragment)
chain: GSHMNLSSEYVKDIYAYLRQLEEEQAVRPKYLLGREVTGNMRAILIDWLVQVQMKFRLLQETMYMTVSIIDRFMQNNSVPKKMLQLVGVTAMFIASKYEEMYPPEIGDFAFVTDNTYTKHQIRQMEMKILRALNFGLGRPLPLHFLRRASKIGEVDVEQHTLAKYLMELTMLDYDMVHFPPSQIAAGAFSLALKILDNGEWTPTLQHYLSYTEESLLPVMQHLAKNVVMVNQGLTKHMTVKNKYATSKHAKISTLPQLNSALVQDLAKAVAKV
notes: artefact left N-terminal to N165 after thrombin cleavage of the hexa-histidine tag; cyclin B1, human, residues 165–433 (begins at N165); not shown: His6, N-terminal, cleaved
  Kd: 28 nM
